The values that follow come from PMC10786891, “Massively parallel profiling of RNA-targeting CRISPR-Cas13d”.

The chains are these.
T1: EsCas13d, nuclease-dead (Eubacterium siraeum, UniProt B0MS50, R295A;H300A;R849A;H854A)
T1 sequence: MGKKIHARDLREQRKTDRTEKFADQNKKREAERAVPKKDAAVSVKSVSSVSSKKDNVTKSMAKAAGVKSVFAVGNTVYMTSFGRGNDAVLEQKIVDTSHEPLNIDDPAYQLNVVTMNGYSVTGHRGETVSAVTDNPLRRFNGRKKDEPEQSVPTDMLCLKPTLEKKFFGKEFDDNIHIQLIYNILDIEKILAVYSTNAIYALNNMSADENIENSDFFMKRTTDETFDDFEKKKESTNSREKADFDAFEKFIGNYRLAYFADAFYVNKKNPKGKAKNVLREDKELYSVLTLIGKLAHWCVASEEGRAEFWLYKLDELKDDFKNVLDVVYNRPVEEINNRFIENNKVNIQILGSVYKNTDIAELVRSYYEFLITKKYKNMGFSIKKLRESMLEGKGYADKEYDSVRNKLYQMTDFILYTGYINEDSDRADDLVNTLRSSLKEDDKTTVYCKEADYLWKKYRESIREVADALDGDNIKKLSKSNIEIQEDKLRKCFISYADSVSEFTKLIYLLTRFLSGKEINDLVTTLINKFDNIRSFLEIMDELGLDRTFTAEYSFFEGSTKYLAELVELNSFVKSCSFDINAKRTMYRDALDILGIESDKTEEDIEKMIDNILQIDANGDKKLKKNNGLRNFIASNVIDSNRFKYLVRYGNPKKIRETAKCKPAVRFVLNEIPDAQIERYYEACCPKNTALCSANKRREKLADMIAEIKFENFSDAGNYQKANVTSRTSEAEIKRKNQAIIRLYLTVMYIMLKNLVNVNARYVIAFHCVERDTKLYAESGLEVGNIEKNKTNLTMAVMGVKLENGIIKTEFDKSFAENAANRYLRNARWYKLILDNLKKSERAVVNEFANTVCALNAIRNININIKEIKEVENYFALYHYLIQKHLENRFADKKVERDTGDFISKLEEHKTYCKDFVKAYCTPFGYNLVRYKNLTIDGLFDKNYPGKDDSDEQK

B1: target 1 C6G,U10G (mixed)
RNA 1: CACCCGUGCAAAAAUGCAGGGGUCUAAAACUGAGCGGAUAACCUCUCUAUGG
RNA 2: GGGAAUGGAUCCACAUCUACGAAUUCGUACCAUAGAGAGGUGAUCGGCUCACCGAGAUCGGAAGAGCACACGU
B2: target 1 A1G (mixed)
RNA 1: CACCCGUGCAAAAAUGCAGGGGUCUAAAACUGAGCGGAUAACCUCUCUAUGG
RNA 2: GGGAAUGGAUCCACAUCUACGAAUUCGUACCAUAGAGAGGUUAUCCGCUCGCCGAGAUCGGAAGAGCACACGU
B3: target 1 A16C,A18U (mixed)
RNA 1: CACCCGUGCAAAAAUGCAGGGGUCUAAAACUGAGCGGAUAACCUCUCUAUGG
RNA 2: GGGAAUGGAUCCACAUCUACGAAUUCGUACCAUUGCGAGGUUAUCCGCUCACCGAGAUCGGAAGAGCACACGU
B4: target 1 MT (mixed)
RNA 1: CACCCGUGCAAAAAUGCAGGGGUCUAAAACUGAGCGGAUAACCUCUCUAUGG
RNA 2: GGGAAUGGAUCCACAUCUACGAAUUCGUACCAUAGAGAGGUUAUCCGCUCACCGAGAUCGGAAGAGCACACGU
B5: target 1 C2U,U19A (mixed)
RNA 1: CACCCGUGCAAAAAUGCAGGGGUCUAAAACUGAGCGGAUAACCUCUCUAUGG
RNA 2: GGGAAUGGAUCCACAUCUACGAAUUCGUACCAAAGAGAGGUUAUCCGCUUACCGAGAUCGGAAGAGCACACGU
B6: target 1 U10A,C22G (mixed)
RNA 1: CACCCGUGCAAAAAUGCAGGGGUCUAAAACUGAGCGGAUAACCUCUCUAUGG
RNA 2: GGGAAUGGAUCCACAUCUACGAAUUCGUAGCAUAGAGAGGUAAUCCGCUCACCGAGAUCGGAAGAGCACACGU
B7: target 1 A1G,U19C (mixed)
RNA 1: CACCCGUGCAAAAAUGCAGGGGUCUAAAACUGAGCGGAUAACCUCUCUAUGG
RNA 2: GGGAAUGGAUCCACAUCUACGAAUUCGUACCACAGAGAGGUUAUCCGCUCGCCGAGAUCGGAAGAGCACACGU
B8: target 1 insC 3' of 18,insA 3' of 13 (mixed)
RNA 1: CACCCGUGCAAAAAUGCAGGGGUCUAAAACUGAGCGGAUAACCUCUCUAUGG
RNA 2: GGGAAUGGAUCCACAUCUACGAAUUCGUACCAUACGAGAGAGUUAUCCGCUCACCGAGAUCGGAAGAGCACACGU
B9: target 1 U8C,A20C (mixed)
RNA 1: CACCCGUGCAAAAAUGCAGGGGUCUAAAACUGAGCGGAUAACCUCUCUAUGG
RNA 2: GGGAAUGGAUCCACAUCUACGAAUUCGUACCCUAGAGAGGUUACCCGCUCACCGAGAUCGGAAGAGCACACGU
B10: target 1 U11C,A18U (mixed)
RNA 1: CACCCGUGCAAAAAUGCAGGGGUCUAAAACUGAGCGGAUAACCUCUCUAUGG
RNA 2: GGGAAUGGAUCCACAUCUACGAAUUCGUACCAUUGAGAGGCUAUCCGCUCACCGAGAUCGGAAGAGCACACGU
B11: target 1 insC 3' of 3,insA 3' of 3 (mixed)
RNA 1: CACCCGUGCAAAAAUGCAGGGGUCUAAAACUGAGCGGAUAACCUCUCUAUGG
RNA 2: GGGAAUGGAUCCACAUCUACGAAUUCGUACCAUAGAGAGGUUAUCCGCUCACACCGAGAUCGGAAGAGCACACGU
B12: target 1 A1C (mixed)
RNA 1: CACCCGUGCAAAAAUGCAGGGGUCUAAAACUGAGCGGAUAACCUCUCUAUGG
RNA 2: GGGAAUGGAUCCACAUCUACGAAUUCGUACCAUAGAGAGGUUAUCCGCUCCCCGAGAUCGGAAGAGCACACGU
B13: target 1 U19C (mixed)
RNA 1: CACCCGUGCAAAAAUGCAGGGGUCUAAAACUGAGCGGAUAACCUCUCUAUGG
RNA 2: GGGAAUGGAUCCACAUCUACGAAUUCGUACCACAGAGAGGUUAUCCGCUCACCGAGAUCGGAAGAGCACACGU
B14: target 1 insA 3' of 22,insA 3' of 12 (mixed)
RNA 1: CACCCGUGCAAAAAUGCAGGGGUCUAAAACUGAGCGGAUAACCUCUCUAUGG
RNA 2: GGGAAUGGAUCCACAUCUACGAAUUCGUACACAUAGAGAGGAUUAUCCGCUCACCGAGAUCGGAAGAGCACACGU
B15: target 1 insU 3' of 4,insG 3' of 3 (mixed)
RNA 1: CACCCGUGCAAAAAUGCAGGGGUCUAAAACUGAGCGGAUAACCUCUCUAUGG
RNA 2: GGGAAUGGAUCCACAUCUACGAAUUCGUACCAUAGAGAGGUUAUCCGCUUGCACCGAGAUCGGAAGAGCACACGU
B16: target 1 insC 3' of 11,insA 3' of 7 (mixed)
RNA 1: CACCCGUGCAAAAAUGCAGGGGUCUAAAACUGAGCGGAUAACCUCUCUAUGG
RNA 2: GGGAAUGGAUCCACAUCUACGAAUUCGUACCAUAGAGAGGUCUAUCACGCUCACCGAGAUCGGAAGAGCACACGU
B17: target 1 insC 3' of 17,insU 3' of 16 (mixed)
RNA 1: CACCCGUGCAAAAAUGCAGGGGUCUAAAACUGAGCGGAUAACCUCUCUAUGG
RNA 2: GGGAAUGGAUCCACAUCUACGAAUUCGUACCAUAGCAUGAGGUUAUCCGCUCACCGAGAUCGGAAGAGCACACGU
B18: target 1 A1C,A9C (mixed)
RNA 1: CACCCGUGCAAAAAUGCAGGGGUCUAAAACUGAGCGGAUAACCUCUCUAUGG
RNA 2: GGGAAUGGAUCCACAUCUACGAAUUCGUACCAUAGAGAGGUUCUCCGCUCCCCGAGAUCGGAAGAGCACACGU
B19: target 1 insC 3' of 11,insA 3' of 2 (mixed)
RNA 1: CACCCGUGCAAAAAUGCAGGGGUCUAAAACUGAGCGGAUAACCUCUCUAUGG
RNA 2: GGGAAUGGAUCCACAUCUACGAAUUCGUACCAUAGAGAGGUCUAUCCGCUCAACCGAGAUCGGAAGAGCACACGU
B20: target 1 C4G,A16G (mixed)
RNA 1: CACCCGUGCAAAAAUGCAGGGGUCUAAAACUGAGCGGAUAACCUCUCUAUGG
RNA 2: GGGAAUGGAUCCACAUCUACGAAUUCGUACCAUAGGGAGGUUAUCCGGUCACCGAGAUCGGAAGAGCACACGU
B21: target 1 U10C,G17U (mixed)
RNA 1: CACCCGUGCAAAAAUGCAGGGGUCUAAAACUGAGCGGAUAACCUCUCUAUGG
RNA 2: GGGAAUGGAUCCACAUCUACGAAUUCGUACCAUAUAGAGGUCAUCCGCUCACCGAGAUCGGAAGAGCACACGU
B22: target 1 A9C (mixed)
RNA 1: CACCCGUGCAAAAAUGCAGGGGUCUAAAACUGAGCGGAUAACCUCUCUAUGG
RNA 2: GGGAAUGGAUCCACAUCUACGAAUUCGUACCAUAGAGAGGUUCUCCGCUCACCGAGAUCGGAAGAGCACACGU
B23: target 1 insC 3' of 1,insU 3' of 1 (mixed)
RNA 1: CACCCGUGCAAAAAUGCAGGGGUCUAAAACUGAGCGGAUAACCUCUCUAUGG
RNA 2: GGGAAUGGAUCCACAUCUACGAAUUCGUACCAUAGAGAGGUUAUCCGCUCACUCCGAGAUCGGAAGAGCACACGU
B24: target 1 insC 3' of 1,insG 3' of 1 (mixed)
RNA 1: CACCCGUGCAAAAAUGCAGGGGUCUAAAACUGAGCGGAUAACCUCUCUAUGG
RNA 2: GGGAAUGGAUCCACAUCUACGAAUUCGUACCAUAGAGAGGUUAUCCGCUCACGCCGAGAUCGGAAGAGCACACGU
B25: target 1 C6A,A18C (mixed)
RNA 1: CACCCGUGCAAAAAUGCAGGGGUCUAAAACUGAGCGGAUAACCUCUCUAUGG
RNA 2: GGGAAUGGAUCCACAUCUACGAAUUCGUACCAUCGAGAGGUUAUCAGCUCACCGAGAUCGGAAGAGCACACGU
B26: target 1 C7A,U8G (mixed)
RNA 1: CACCCGUGCAAAAAUGCAGGGGUCUAAAACUGAGCGGAUAACCUCUCUAUGG
RNA 2: GGGAAUGGAUCCACAUCUACGAAUUCGUACCAUAGAGAGGUUAGACGCUCACCGAGAUCGGAAGAGCACACGU
B27: target 1 insC 3' of 20,insU 3' of 13 (mixed)
RNA 1: CACCCGUGCAAAAAUGCAGGGGUCUAAAACUGAGCGGAUAACCUCUCUAUGG
RNA 2: GGGAAUGGAUCCACAUCUACGAAUUCGUACCACUAGAGAGUGUUAUCCGCUCACCGAGAUCGGAAGAGCACACGU

In this data set the target is T1, EsCas13d, nuclease-dead. In words: crRNA (strand 1, pre-loaded); Mg2+; 40 mM Tris-HCl pH 7.5, 150 mM NaCl, 6 mM MgCl2, 1 mM DTT, 0.1% Tween-20, 0.2 mg/ml BSA; 25 C; 10 min per concentration, then washed. The settings on record: tags: His6-TwinStrep-SUMO cleaved; N-terminal SNAP kept (SNAP-Surface 488); label: 3' end held by stalled T7 RNA polymerase.
As for B1, the affinity, expressed as Kd, was 15.2 ± 0.9 nM.

Consider B2, for which the affinity, expressed as Kd, was 8.6 ± 0.7 nM. B3: binding was characterised by a dissociation constant (Kd) of 89 ± 11 nM. Then B4, with 8.62 ± 0.06 nM; and B5, with 26.5 ± 2.9 nM; and B6, with 76 ± 25 nM. For B7 the value was 35 ± 5 nM; for B8, 24.4 ± 1.9 nM. For B9 the value was 65 ± 7 nM. For B10, the Kd was found to be 45 ± 6 nM. This Kd and that of the molecule before are within 1.5-fold of each other.

B11 displayed a Kd of 9.8 ± 0.5 nM.

B12 displayed a Kd of 24 ± 4 nM. For B13 the value was 21 ± 1.3 nM. Then B14, with 47 ± 8 nM. In turn, B15 returned a Kd of 7.77 ± 0.31 nM. B16 gave a dissociation constant Kd of 25.7 ± 1.5 nM.

B17: binding was characterised by a dissociation constant (Kd) of 40 ± 6 nM. For B18 the value was 22.5 ± 3 nM; for B19, 38 ± 4 nM. For B20 the value was 16.3 ± 3.2 nM; for B21, 55 ± 4 nM. Then B22, with 15 ± 0.7 nM; and B23, with 10 ± 0.4 nM; and B24, with 9 ± 0.7 nM.

B25 gave a dissociation constant (Kd) of 54 ± 4 nM. For B26 the value was 9.8 ± 1.1 nM. For B27 the value was 6.9 ± 0.7 nM.
